Results on 2 molecules are retold here after article PMC9838217, “Structure of SALL4 zinc finger domain reveals link between AT-rich DNA binding and Okihiro syndrome”.

The target in data set [1] is T1, SALL4 ZFC4 WT (Mus musculus, UniProt Q8BX22 870-940).
T1 sequence: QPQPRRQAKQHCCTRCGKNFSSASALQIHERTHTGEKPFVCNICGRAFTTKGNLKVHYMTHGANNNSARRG
Kind of data set: X-ray crystallography 2.76 A; Zn2+; 4 ZFC4 and 4 dsDNA per asymmetric unit, unevenly distributed; 50 mM MES pH 6.0, 20% PEG 3350, 60 mM MgCl2; EMSA: 68.1 nM DY681-dsDNA, 20 mM HEPES pH 7.5, 150 mM K acetate, 5 mM Mg acetate, 10 ng/ul poly(dI-dC), 30 min on ice; 4% native PAGE, 0.5x TBE, 4 C. As to conditions: protein: recombinant; tags: His6-GST removed with 3C protease; GPDS scar at N-terminus; blunt; self-complementary, 2 copies of strand.

The target of data set [2] is T1, SALL4 ZFC4 WT. Nature of the data set: EMSA; apparent; patient mutation dataset; poly(dI-dC); EMSA: 68.1 nM DY681-dsDNA, 20 mM HEPES pH 7.5, 150 mM K acetate, 5 mM Mg acetate, 10 ng/ul poly(dI-dC), 30 min on ice; 4% native PAGE, 0.5x TBE, 4 C. As to conditions: protein: recombinant; tags: His6-GST removed with 3C protease; GPDS scar at N-terminus; label: DY681. On the technique in general: In EMSA bound probe runs differently from free probe, usually more slowly.

In data set [3] the target is T1, SALL4 ZFC4 WT. Kind of data set: EMSA; apparent; major groove mutant dataset; poly(dI-dC); EMSA: 68.1 nM DY681-dsDNA, 20 mM HEPES pH 7.5, 150 mM K acetate, 5 mM Mg acetate, 10 ng/ul poly(dI-dC), 30 min on ice; 4% native PAGE, 0.5x TBE, 4 C. As to conditions: protein: recombinant; tags: His6-GST removed with 3C protease; GPDS scar at N-terminus; label: DY681.
The target of another data set is T2, SALL4 ZFC4 I897S (Mus musculus, UniProt Q8BX22 870-940, I897S).
T2 sequence: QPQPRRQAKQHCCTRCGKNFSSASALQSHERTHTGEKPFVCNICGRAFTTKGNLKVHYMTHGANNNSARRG
Nature of the data set: EMSA; EMSA: 20 mM HEPES pH 7.5, 150 mM K acetate, 5 mM Mg acetate, 10 ng/ul poly(dI-dC), 68.1 nM DNA, on ice 30 min, gel at 4 C. HT-SELEX: 10 mM Tris-HCl pH 7.5, 50 m. As to conditions: protein: recombinant; tags: His6-GST removed with 3C protease; label: DY681.

Data set [4] has as its target T1, SALL4 ZFC4 WT. The data set is described as above. The settings on record: protein: recombinant; tags: His6-GST removed with 3C protease; GPDS scar at N-terminus; label: DY681.
In a further data set the target is T3, SALL4 ZFC4 I897S+V925S (Mus musculus, UniProt Q8BX22 870-940, I897S;V925S).
T3 sequence: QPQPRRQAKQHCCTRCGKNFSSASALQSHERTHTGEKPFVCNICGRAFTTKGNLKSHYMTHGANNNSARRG
Described as above. As to conditions: protein: recombinant; tags: His6-GST removed with 3C protease; label: DY681.

A further data set deals with T4, SALL4 ZFC4 R900W (Mus musculus, UniProt Q8BX22 870-940, R900W).
T4 sequence: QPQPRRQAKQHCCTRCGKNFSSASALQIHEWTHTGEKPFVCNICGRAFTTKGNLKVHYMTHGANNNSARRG
Described as above. As to conditions: protein: recombinant; tags: His6-GST removed with 3C protease; label: DY681.

B1: palindromic AT-rich crystallisation DNA (dsDNA)
DNA 1: GATATTAATATC
DNA 2: GATATTAATATC
As to B1, in the data set with SALL4 ZFC4 WT [1], the binding result is “binds”.

B2: EMSA AT-rich probe (dsDNA)
DNA 1: AAAAAATATTAAAAA
DNA 2: TTTTTAATATTTTTT
As to B2, the Kd with SALL4 ZFC4 WT [2] is 472 nM; with SALL4 ZFC4 WT [3], 760 nM; with SALL4 ZFC4 I897S, 4800 nM; in the data set with SALL4 ZFC4 WT [4] it was 615 ± 205 nM; in the data set with SALL4 ZFC4 I897S+V925S, 5100 nM; with SALL4 ZFC4 R900W, 23000 nM.
